Measured values: the supplement of paper PMC7125110
± gives the standard error. This sample holds only a part of the variants without activity.

B1: glmS ribozyme (parent)
chain: AUAAAAGCGCCAGAACUACAGAAAUGUAGUUGACGAGGAGGAGGUUUAUCGAAUUUUCGGCGGAUGCCUCCAAA

What was measured:
Conditions in all cases: with glucosamine-6-phosphate
glucosamine-6-phosphate [1] = variants of: B1; experiment: self-cleavage kobs at 40 uM GlcN6P; higher = faster cleavage; RNA array
Procedure, shortened: (§1)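 Barcoded ribozyme variants were transcribed in situ on sequenced MiSeq chips by E. coli RNA polymerase. At 37 °C, a hybridised Cy3 probe tracked them while glucosamine-6-phosphate (40 μM to 10 mM) in HEPES/KCl/Mg(OAc)2 buffer flowed in and tiles were imaged over ~14 h. Per-tile medians of signals normalised to baseline and to non-cleaving reference variants were fit to one- or two-exponential decays, giving kobs. kcat and KM came from weighted Michaelis–Menten fits across concentrations.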

glucosamine-6-phosphate [2] = variants of: B1; experiment: self-cleavage kobs at 160 uM GlcN6P; higher = faster cleavage; RNA array
Procedure, shortened: as §1

glucosamine-6-phosphate [3] = variants of: B1; experiment: self-cleavage kobs at 10000 uM GlcN6P; higher = faster cleavage; RNA array
Procedure, shortened: as §1

glucosamine-6-phosphate [4] = variants of: B1; experiment: self-cleavage kobs at 640 uM GlcN6P; higher = faster cleavage; RNA array
Procedure, shortened: as §1

glucosamine-6-phosphate [5] = variants of: B1; experiment: self-cleavage kobs at 2500 uM GlcN6P; higher = faster cleavage; RNA array
Procedure, shortened: as §1

| Variant | self-cleavage kobs at 40 uM GlcN6P (glucosamine-6-phosphate [1]) [s⁻¹] | self-cleavage kobs at 160 uM GlcN6P (glucosamine-6-phosphate [2]) [s⁻¹] | self-cleavage kobs at 10000 uM GlcN6P (glucosamine-6-phosphate [3]) [s⁻¹] | self-cleavage kobs at 640 uM GlcN6P (glucosamine-6-phosphate [4]) [s⁻¹] | self-cleavage kobs at 2500 uM GlcN6P (glucosamine-6-phosphate [5]) [s⁻¹] |
| --- | --- | --- | --- | --- | --- |
| G32A A52U C71A | < 1e-05 |  |  |  |  |
| U31C U57G | < 1e-05 |  |  |  |  |
| A33U C50A C68G | 4.36e-05 ± 2e-05 |  |  |  |  |
| G32C G40A | < 1e-05 | < 1e-05 | 1.99e-05 ± 7.3e-06 |  |  |
| U31G U49G C50G | < 1e-05 |  |  |  |  |
| A33U A42C U47G U54A | < 1e-05 |  | < 1e-05 | < 1e-05 | < 1e-05 |
| U31G G44A G51U C61U C70G | < 1e-05 |  |  |  |  |
| U31G U54A | 0.000582 ± 0.00015 |  | 0.00833 ± 0.002 |  | 0.00634 ± 0.0018 |
| U31G U54G | 0.000298 ± 5.4e-05 | 0.000493 ± 8.5e-05 | 0.0119 ± 0.0031 | 0.00263 ± 0.00063 | 0.00445 ± 0.00094 |
| C34A A52G | < 1e-05 | < 1e-05 | < 1e-05 | < 1e-05 | < 1e-05 |
| G32A G37A C50G C67U | 6.41e-05 ± 2.1e-05 |  |  |  |  |
| G32C G44C | < 1e-05 | < 1e-05 | < 1e-05 |  | < 1e-05 |
| A33U G40C C71A | < 1e-05 |  |  |  |  |
| C34G G62U | < 1e-05 |  | < 1e-05 |  | < 1e-05 |
| C34G G62A | < 1e-05 |  | < 1e-05 | < 1e-05 | < 1e-05 |
| G32C G38C | < 1e-05 | < 1e-05 |  | < 1e-05 |  |
| G32C U45C C58G G59U | < 1e-05 |  |  |  |  |
| U31G U57G | < 1e-05 |  |  |  |  |
| G32C U49G | < 1e-05 | < 1e-05 |  | < 1e-05 |  |
| A33U A48G A53U U57C | < 1e-05 |  | < 1e-05 |  |  |
| A33U G59C | < 1e-05 |  | < 1e-05 | < 1e-05 |  |
| U31C U49A A64U | < 1e-05 |  | < 1e-05 |  |  |
| A33G A39U | < 1e-05 |  | < 1e-05 |  | < 1e-05 |
| C34A A36G A39C | < 1e-05 |  | < 1e-05 |  | < 1e-05 |
| U31G G60C C68A | < 1e-05 |  |  |  |  |

| Variant | self-cleavage kobs at 40 uM GlcN6P (glucosamine-6-phosphate [1]) [s⁻¹] | self-cleavage kobs at 160 uM GlcN6P (glucosamine-6-phosphate [2]) [s⁻¹] | self-cleavage kobs at 10000 uM GlcN6P (glucosamine-6-phosphate [3]) [s⁻¹] | self-cleavage kobs at 640 uM GlcN6P (glucosamine-6-phosphate [4]) [s⁻¹] | self-cleavage kobs at 2500 uM GlcN6P (glucosamine-6-phosphate [5]) [s⁻¹] |
| --- | --- | --- | --- | --- | --- |
| A33U A64U | < 1e-05 |  | < 1e-05 | < 1e-05 |  |
| A33C G43C C58A U69A | < 1e-05 |  | < 1e-05 | < 1e-05 |  |
| C34U G38U | < 1e-05 | < 1e-05 | < 1e-05 | < 1e-05 |  |
| A33C G51A | < 1e-05 |  | < 1e-05 |  | < 1e-05 |
| U31G A39G A64G | 0.00023 ± 8.9e-05 |  | 0.0288 ± 0.012 | 0.00544 ± 0.0014 |  |
| G32C A52C G63A | < 1e-05 |  |  |  |  |
| G32U A52G C58A C70A | 5.29e-05 ± 2.5e-05 |  | 4.31e-05 ± 2e-05 |  |  |
| A33U U46A U47G | < 1e-05 |  |  |  |  |
| C34G A36G G37A A42U G51C C67U | < 1e-05 |  |  |  | < 1e-05 |
| C34U U55G C71U | < 1e-05 |  |  |  |  |
| A33C C58A | < 1e-05 |  |  | < 1e-05 |  |
| U31G G63A | < 1e-05 | < 1e-05 | < 1e-05 | < 1e-05 | < 1e-05 |
| U31G G44U C61U | < 1e-05 |  | < 1e-05 |  |  |
| A33C G43A G44A | < 1e-05 |  | < 1e-05 |  |  |
| A33G A64U | < 1e-05 |  | < 1e-05 |  |  |
| C34G G38A C58U | < 1e-05 |  |  |  |  |
| C34G | < 1e-05 | < 1e-05 | < 1e-05 | < 1e-05 | < 1e-05 |
| C34A | < 1e-05 | < 1e-05 |  | < 1e-05 | < 1e-05 |
| U31G A42G | 0.00033 ± 8.8e-05 |  | 0.0263 ± 0.0086 | 0.00343 ± 0.0011 | 0.00724 ± 0.0018 |
| G32U A33C U45G U65A | < 1e-05 |  | < 1e-05 | < 1e-05 | < 1e-05 |
| G32A G41C | < 1e-05 |  | 3.31e-05 ± 8.8e-06 | < 1e-05 |  |
| C34A C68U | < 1e-05 | < 1e-05 | < 1e-05 | < 1e-05 | < 1e-05 |
| A33G G40C C70U | < 1e-05 |  | < 1e-05 |  |  |
| U31G A53G | 0.000276 ± 4.7e-05 | 0.000661 ± 0.00018 | 0.02 ± 0.0035 |  | 0.00382 ± 0.00096 |
| A33G U65C C71A | < 1e-05 |  |  | < 1e-05 |  |
